This note sets out measurements from patent US20220177587A1, “METHODS AND USES OF VARIANT CD80 FUSION PROTEINS AND RELATED CONSTRUCTS” (Alpine Immune Sciences, Inc., priority 2018, published 2022).

Changes are numbered by the printed parent chain. Numbers in names are those of the source. Where “and” joins values, the source holds several entries; their conditions need not be identical. Equal entries are not always repeated.

The labels stand for the following.
B1: R29D, Y31L, Q33H, K36G, M38I, T41A, M43R, M47T, L70Q, E81V, L85R, K89N, A91T, F92P, K93V, R94L, I118V, T120S, I127T, T130A, E143G, K169E, M174V, H188D (protein)
chain: VIHVTKEVKEVATLSCGHNVSVEELAQTDILWHKEGKIVLAMRSGDTNIWPEYKNRTIFDITNNLSIVIQALRPSDEGTYVCVVRKYENDTPVLEHLAEVTLSVKADFPTPSISDFEVPSSNIRRITCSASGGFPEPHLSWLGNGEELNAINTTVSQDPETELYAVSSELDFNVTTNHSFMCLIKYGDLRVNQTFNWNTTKQEHFPDN
B2: H18L, R29D, Y31L, Q33H, K36G, M38I, T41A, M43R, M47T, L70Q, E81V, L85R, K89N, A91T, F92P, K93V, R94L, I118V, T120S, T130A, K169E, H188D (protein)
chain: B1 chain with H18L, T127I, G143E, V174M
B3: R29D, Y31L, Q33H, K36G, M38I, T41A, M43R, M47T, L70Q, E81V, K89N, A91T, F92P, K93V, R94L, I118V, T120S, I127T, T130A (protein)
chain: B1 chain with R85L, G143E, E169K, V174M, D188H
B4: R29D, Y31L, Q33H, K36G, M38I, T41A, M43R, M47T, E81V, L85R, K89N, A91T, F92P, K93V, R94L, F108L, I118V, T120S, T130A, K169E, H188D (protein)
chain: B1 chain with Q70L, F108L, T127I, G143E, V174M
B5: R29D, Y31L, Q33H, K36G, M38I, T41A, M43R, M47T, L70Q, E81V, L85R, K89N, A91T, F92P, K93V, R94L, I118V, T120S, T130A, N149D, K169E, H188D (protein)
chain: B1 chain with T127I, G143E, N149D, V174M
B6: R29D, Y31L, Q33H, K36G, M38I, T41A, M43R, M47T, L70Q, E81V, L85R, K89N, A91T, F92P, K93V, R94L, I118V, T120S, I127T, T130A, K169E (protein)
chain: B1 chain with G143E, V174M, D188H
B7: R29D, Y31L, Q33H, K36G, M38I, T41A, M43R, M47T, L70Q, E81V, L85R, K89N, A91T, F92P, K93V, R94L, T130A, H188D (protein)
chain: B1 chain with V118I, S120T, T127I, G143E, E169K, V174M
B8: R29D, I30V, Y31L, Q33H, K36G, M38I, T41A, M43R, M47T, E81V, L85R, K89N, A91T, F92P, K93V, R94L, I118V, T120S, I127T, T130A, H188D (protein)
chain: B1 chain with I30V, Q70L, G143E, E169K, V174M
B9: R29D, Y31L, Q33H, K36G, M38I, T41A, M43R, M47T, L85R, K89N, A91T, F92P, K93V, R94L, I118V, T120S, I127T, T130A, K169E, H188D (protein)
chain: B1 chain with Q70L, V81E, G143E, V174M

This assay has as its system human pan T cells. Description: Anti-CD3 coimmobilization assay, IFN-gamma. In kind it is cell-based. The note with it: Table E34; culture supernatant, 3 days. Summed up: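 Plates coated overnight with 1 nM or 4 nM OKT3 anti-CD3 plus 1–80 nM rCD80.Fc variants, then washed. Purified human pan T cells or BC3 T cell clone (100,000/well) cultured 3 days in Ex-Vivo 15; supernatant IFN-gamma measured by ELISA.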
Turning to B1, the “Anti-CD3 IFN-gamma Coimmobilization Assay” value turned out to be 291 pg/mL.
Turning to B2, the “Anti-CD3 IFN-gamma Coimmobilization Assay” value came out at 157 pg/mL.
For B3 the value was 226 pg/mL; for B4, 165 pg/mL; for B5, 118 pg/mL.
Turning to B6, the “Anti-CD3 IFN-gamma Coimmobilization Assay” value came out at 203 pg/mL.
Consider B7, for which the “Anti-CD3 IFN-gamma Coimmobilization Assay” value worked out at 213 pg/mL.
For the molecule B8, the “Anti-CD3 IFN-gamma Coimmobilization Assay” value is 127 pg/mL and 237 pg/mL.
For B9 the value was 231 pg/mL.
